Columns and labels:
Grb2 [1] = target: Grb2 (UniProt Q60631); test: fragment affinity purification, western blot; conditions: reference: YYYS fragment; sites Y239,Y240
Pik3r1 [2] = target: Pik3r1 (UniProt P26450); test: fragment affinity purification, western blot
Arhgef5 = Arhgef5 (UniProt E9Q7D5); test: fragment AP-MS, label-free quantification; conditions: reference: YYYS fragment; sites Y239,Y240
Grb2 [3] = target: Grb2 (UniProt Q60631); test: fragment AP-MS, label-free quantification; conditions: reference: YYYS fragment; sites Y239,Y240
Grb7 = Grb7 (UniProt Q03160); test: fragment AP-MS, label-free quantification; conditions: reference: YYYS fragment
Pik3r1 [4] = target: Pik3r1 (UniProt P26450); test: fragment AP-MS, label-free quantification
Plcg1 [5] = target: Plcg1 (UniProt Q62077); test: fragment affinity purification, western blot; conditions: reference: pYpYYS fragment; sites Y313,S335
Ubash3b (Sts1) [6] = target: Ubash3b (Sts1) (UniProt Q8BGG7); test: fragment affinity purification, western blot; conditions: reference: pYpYYS fragment; sites Y313,S335
Plcg1 [7] = target: Plcg1 (UniProt Q62077); test: fragment AP-MS, label-free quantification
Ubash3b (Sts1) [8] = target: Ubash3b (Sts1) (UniProt Q8BGG7); test: fragment AP-MS, label-free quantification
[9] = reference: YYYS fragment, sites Y239,Y240
[10] = reference: pYpYYS fragment, sites Y313,S335
[11] = reference: YYYS fragment, sites Y239,Y240,Y313,S335

Measured: binding against the reference

UniProt P26450, sequence (P26450 whole entry, looked up, the tested form may be a part): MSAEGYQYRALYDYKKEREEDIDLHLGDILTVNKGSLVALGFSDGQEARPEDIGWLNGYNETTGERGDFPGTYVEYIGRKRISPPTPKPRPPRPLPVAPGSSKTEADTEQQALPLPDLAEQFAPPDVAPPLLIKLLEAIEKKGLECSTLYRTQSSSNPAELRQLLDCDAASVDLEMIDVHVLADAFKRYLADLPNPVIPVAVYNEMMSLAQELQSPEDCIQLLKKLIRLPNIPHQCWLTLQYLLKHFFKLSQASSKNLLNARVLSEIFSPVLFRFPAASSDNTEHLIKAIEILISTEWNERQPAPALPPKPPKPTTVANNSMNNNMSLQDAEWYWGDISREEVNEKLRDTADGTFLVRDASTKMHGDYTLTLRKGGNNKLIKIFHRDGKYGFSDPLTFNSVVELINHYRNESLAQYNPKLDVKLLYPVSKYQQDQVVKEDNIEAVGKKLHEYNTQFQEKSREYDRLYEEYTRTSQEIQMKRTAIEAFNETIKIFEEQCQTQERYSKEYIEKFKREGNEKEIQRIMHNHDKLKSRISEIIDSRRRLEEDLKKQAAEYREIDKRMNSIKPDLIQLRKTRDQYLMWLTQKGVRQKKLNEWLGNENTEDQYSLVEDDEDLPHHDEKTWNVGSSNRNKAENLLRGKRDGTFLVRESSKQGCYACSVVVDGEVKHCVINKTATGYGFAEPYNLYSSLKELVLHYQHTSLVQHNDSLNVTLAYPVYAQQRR
UniProt Q8BGG7, sequence (Q8BGG7 whole entry, looked up, the tested form may be a part): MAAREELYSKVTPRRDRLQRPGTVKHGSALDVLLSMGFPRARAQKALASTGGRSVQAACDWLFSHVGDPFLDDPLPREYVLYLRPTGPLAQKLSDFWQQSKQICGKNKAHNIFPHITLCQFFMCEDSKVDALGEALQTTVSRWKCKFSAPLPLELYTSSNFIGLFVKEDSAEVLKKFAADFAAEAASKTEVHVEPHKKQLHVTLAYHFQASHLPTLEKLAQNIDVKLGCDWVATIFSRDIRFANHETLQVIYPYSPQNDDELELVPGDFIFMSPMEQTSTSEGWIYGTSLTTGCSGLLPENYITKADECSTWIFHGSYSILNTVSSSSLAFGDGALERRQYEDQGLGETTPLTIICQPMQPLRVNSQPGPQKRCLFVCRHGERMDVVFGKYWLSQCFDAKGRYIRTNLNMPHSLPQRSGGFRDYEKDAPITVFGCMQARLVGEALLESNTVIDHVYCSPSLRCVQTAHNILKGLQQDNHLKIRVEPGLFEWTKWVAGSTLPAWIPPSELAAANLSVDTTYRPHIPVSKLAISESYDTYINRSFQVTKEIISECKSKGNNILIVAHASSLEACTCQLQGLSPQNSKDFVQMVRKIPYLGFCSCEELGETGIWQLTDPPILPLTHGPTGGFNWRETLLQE
UniProt Q62077, sequence (Q62077 whole entry, looked up, the tested form may be a part): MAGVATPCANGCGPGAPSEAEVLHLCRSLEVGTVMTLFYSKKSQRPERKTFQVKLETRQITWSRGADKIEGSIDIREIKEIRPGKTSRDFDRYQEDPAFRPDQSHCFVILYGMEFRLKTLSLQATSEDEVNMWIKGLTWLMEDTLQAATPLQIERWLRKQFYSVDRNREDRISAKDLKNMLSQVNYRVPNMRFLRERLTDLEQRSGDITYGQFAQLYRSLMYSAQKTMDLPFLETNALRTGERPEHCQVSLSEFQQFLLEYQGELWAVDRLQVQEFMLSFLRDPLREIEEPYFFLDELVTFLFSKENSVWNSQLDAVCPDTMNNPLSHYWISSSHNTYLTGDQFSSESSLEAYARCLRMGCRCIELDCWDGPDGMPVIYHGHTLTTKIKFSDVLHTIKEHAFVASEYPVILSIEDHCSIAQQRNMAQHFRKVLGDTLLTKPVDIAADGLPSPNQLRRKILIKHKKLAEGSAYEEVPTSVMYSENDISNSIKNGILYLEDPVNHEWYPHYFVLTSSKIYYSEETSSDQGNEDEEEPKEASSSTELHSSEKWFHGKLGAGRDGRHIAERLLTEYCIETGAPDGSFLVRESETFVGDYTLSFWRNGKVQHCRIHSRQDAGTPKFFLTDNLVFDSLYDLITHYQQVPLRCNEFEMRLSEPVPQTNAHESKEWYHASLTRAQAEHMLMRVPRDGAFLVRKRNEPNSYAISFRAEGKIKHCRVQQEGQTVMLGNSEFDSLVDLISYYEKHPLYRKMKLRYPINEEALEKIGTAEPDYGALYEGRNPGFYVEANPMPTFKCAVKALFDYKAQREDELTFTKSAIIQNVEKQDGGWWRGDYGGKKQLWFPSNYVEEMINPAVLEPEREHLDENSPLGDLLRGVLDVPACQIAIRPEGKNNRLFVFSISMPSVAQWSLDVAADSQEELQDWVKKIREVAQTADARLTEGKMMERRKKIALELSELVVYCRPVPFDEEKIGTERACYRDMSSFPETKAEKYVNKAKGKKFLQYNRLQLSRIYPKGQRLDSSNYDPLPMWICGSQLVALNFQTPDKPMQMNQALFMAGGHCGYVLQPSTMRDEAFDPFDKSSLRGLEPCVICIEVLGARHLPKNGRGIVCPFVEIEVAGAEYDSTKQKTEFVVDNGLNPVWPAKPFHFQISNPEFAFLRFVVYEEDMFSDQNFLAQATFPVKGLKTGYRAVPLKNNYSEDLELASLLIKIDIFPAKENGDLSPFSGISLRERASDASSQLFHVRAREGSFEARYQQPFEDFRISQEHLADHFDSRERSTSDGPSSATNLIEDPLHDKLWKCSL
UniProt Q03160, sequence (Q03160 whole entry, looked up, the tested form may be a part): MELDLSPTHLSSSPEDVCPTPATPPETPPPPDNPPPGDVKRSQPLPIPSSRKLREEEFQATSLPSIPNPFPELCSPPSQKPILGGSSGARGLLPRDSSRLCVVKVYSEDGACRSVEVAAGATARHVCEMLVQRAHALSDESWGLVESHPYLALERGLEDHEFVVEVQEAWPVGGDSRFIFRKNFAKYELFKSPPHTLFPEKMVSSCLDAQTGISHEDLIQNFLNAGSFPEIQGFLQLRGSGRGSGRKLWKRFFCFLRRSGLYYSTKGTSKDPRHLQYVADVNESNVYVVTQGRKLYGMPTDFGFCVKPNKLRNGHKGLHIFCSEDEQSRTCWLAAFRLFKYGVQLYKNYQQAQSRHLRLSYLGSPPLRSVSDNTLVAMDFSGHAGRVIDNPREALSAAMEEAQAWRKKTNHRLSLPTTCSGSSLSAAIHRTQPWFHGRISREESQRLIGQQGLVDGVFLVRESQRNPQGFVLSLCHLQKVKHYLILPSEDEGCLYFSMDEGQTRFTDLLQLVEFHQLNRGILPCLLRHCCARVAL
UniProt E9Q7D5, sequence (E9Q7D5 whole entry, looked up, the tested form may be a part): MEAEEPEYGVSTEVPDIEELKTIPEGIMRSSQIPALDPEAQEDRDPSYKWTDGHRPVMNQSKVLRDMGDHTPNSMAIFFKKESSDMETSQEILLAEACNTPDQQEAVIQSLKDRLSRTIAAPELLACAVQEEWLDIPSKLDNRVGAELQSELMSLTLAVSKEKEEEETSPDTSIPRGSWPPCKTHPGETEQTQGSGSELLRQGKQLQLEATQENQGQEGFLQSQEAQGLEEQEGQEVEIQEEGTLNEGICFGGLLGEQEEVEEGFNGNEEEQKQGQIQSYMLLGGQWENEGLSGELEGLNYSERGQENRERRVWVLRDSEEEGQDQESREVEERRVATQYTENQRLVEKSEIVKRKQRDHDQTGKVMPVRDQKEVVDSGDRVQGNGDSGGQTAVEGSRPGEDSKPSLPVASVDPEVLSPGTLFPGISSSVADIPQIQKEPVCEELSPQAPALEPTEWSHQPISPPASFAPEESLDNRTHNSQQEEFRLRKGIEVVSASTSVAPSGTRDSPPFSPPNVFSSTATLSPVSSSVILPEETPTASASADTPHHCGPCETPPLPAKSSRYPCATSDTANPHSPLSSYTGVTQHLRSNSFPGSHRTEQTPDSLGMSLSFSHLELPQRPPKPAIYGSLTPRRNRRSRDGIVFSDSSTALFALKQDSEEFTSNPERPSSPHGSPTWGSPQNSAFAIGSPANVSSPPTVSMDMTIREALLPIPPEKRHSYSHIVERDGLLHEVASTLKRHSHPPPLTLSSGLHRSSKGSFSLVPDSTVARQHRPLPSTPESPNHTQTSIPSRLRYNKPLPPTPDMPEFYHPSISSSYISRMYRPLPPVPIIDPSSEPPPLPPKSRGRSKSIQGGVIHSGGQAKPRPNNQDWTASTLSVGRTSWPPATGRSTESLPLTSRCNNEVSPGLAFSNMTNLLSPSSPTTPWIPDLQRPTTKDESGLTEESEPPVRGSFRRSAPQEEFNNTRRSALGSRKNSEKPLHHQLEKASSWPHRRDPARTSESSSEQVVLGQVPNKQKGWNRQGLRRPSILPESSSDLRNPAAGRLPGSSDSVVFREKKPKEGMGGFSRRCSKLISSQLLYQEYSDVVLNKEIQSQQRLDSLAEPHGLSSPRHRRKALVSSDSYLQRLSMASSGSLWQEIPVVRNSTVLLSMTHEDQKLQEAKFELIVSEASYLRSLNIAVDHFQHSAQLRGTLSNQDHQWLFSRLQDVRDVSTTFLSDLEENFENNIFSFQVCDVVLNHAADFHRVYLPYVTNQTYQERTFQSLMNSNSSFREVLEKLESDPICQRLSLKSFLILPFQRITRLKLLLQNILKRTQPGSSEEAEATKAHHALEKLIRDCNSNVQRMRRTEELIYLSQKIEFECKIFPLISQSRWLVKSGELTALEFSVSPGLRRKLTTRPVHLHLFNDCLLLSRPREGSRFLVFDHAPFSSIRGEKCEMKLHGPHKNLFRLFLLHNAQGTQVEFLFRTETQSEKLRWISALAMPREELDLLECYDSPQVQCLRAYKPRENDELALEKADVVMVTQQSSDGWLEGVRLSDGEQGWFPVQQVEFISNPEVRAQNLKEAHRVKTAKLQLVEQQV

Shc1 (p52Shc1) CH1 region, 107 residues (from UniProt P98083-2) pYpYYS fragment
stronger: Grb2 [1] | Pik3r1 [2]; [9] | Arhgef5 | Grb2 [3] | Grb7; sites Y239,Y240 | Pik3r1 [4]; [9]

Shc1 (p52Shc1) CH1 region, 107 residues (from UniProt P98083-2) pYpYpYpS fragment
stronger: Pik3r1 [2]; [10] | Plcg1 [5] | Ubash3b (Sts1) [6] | Pik3r1 [4]; [10] | Plcg1 [7]; [11] | Plcg1 [7]; [10] | Ubash3b (Sts1) [8]; [11] | Ubash3b (Sts1) [8]; [10]

Shc1 (p52Shc1) CH1 region, 107 residues (from UniProt P98083-2) pYYYS fragment
stronger: Grb7; sites Y239
